# Laboratory results published in US20260097113A1 (Pfizer, published 2026).
# Key:
# [1] = molecular target: RSV A + RSV B bivalent composition (RSV subtype A; RSV subtype B); assay: AM14 prefusion assay relative to standard; RSV A + RSV B 240 µg/mL each, 2% sucrose + 4% mannitol; post-lyo T0
# [2] = molecular target: RSV A + RSV B bivalent composition (RSV subtype A; RSV subtype B); assay: AM14 prefusion assay relative to standard; RSV A + RSV B 240 µg/mL each, 2% sucrose + 4% mannitol; post-lyo 2 months at 5°C
# Chain of AM14 (trimeric prefusion specific antibody of the AM14 ELISA) (VH): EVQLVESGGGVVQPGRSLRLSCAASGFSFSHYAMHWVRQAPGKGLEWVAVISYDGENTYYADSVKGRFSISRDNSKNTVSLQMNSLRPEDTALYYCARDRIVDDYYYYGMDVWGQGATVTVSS
# Chain of AM14 (trimeric prefusion specific antibody of the AM14 ELISA) (VL): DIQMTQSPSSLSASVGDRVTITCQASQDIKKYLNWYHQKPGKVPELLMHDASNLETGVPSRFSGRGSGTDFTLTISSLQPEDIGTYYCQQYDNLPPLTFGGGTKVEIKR
substance,measurement,setting,value
AM14 (trimeric prefusion specific antibody of the AM14 ELISA),"AM14 Prefusion Content (%), relative to standard",[1],81%
same,"AM14 Prefusion Content (%), relative to standard",[2],116%
